Where no end group is shown, it is not given here.
Columns and labels:
Table 7 peptide No. 20 = target: T1, Table 7 peptide No. 20 (human); assay: PEPSCAN CLIPS peptide ELISA
T1 peptide: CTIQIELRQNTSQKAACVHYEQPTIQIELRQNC

Table 7 peptide No. 26 = target: T2, Table 7 peptide No. 26 (human, not fully specified; cysteine pairing not given here); assay: PEPSCAN CLIPS peptide ELISA
T2 peptide: CVHYEQPTIQIELRQNC

Table 7 peptide No. 2 = target: T3, Table 7 peptide No. 2 (human); assay: PEPSCAN CLIPS peptide ELISA
T3 peptide: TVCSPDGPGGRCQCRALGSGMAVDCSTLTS

Table 7 peptide No. 33 = target: T4, Table 7 peptide No. 33 (human, not fully specified); assay: PEPSCAN CLIPS peptide ELISA
T4 peptide: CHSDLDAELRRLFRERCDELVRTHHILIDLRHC

Table 7 peptide No. 18 = target: T5, Table 7 peptide No. 18 (human); assay: PEPSCAN CLIPS peptide ELISA
T5 peptide: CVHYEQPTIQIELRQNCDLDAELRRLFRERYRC

Table 7 peptide No. 9 = target: T6, Table 7 peptide No. 9 (human, not fully specified); assay: PEPSCAN CLIPS peptide ELISA
T6 peptide: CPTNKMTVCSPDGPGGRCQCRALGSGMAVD

Table 7 peptide No. 17 = target: T7, Table 7 peptide No. 17 (human); assay: PEPSCAN CLIPS peptide ELISA
T7 peptide: FQGRGGLDLRVRGEP

Table 7 peptide No. 28 = target: T8, Table 7 peptide No. 28 (human, not fully specified); assay: PEPSCAN CLIPS peptide ELISA
T8 peptide: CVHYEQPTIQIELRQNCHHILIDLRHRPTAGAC

Table 7 peptide No. 16 = target: T9, Table 7 peptide No. 16 (human); assay: PEPSCAN CLIPS peptide ELISA
T9 peptide: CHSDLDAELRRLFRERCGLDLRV

Table 7 peptide No. 3 = target: T10, Table 7 peptide No. 3 (human, not fully specified); assay: PEPSCAN CLIPS peptide ELISA
T10 peptide: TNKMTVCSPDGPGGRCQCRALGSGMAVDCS

Table 7 peptide No. 8 = target: T11, Table 7 peptide No. 8 (human, not fully specified); assay: PEPSCAN CLIPS peptide ELISA
T11 peptide: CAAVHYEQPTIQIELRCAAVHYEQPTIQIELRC

Table 7 peptide No. 23 = target: T12, Table 7 peptide No. 23 (human, not fully specified); assay: PEPSCAN CLIPS peptide ELISA
T12 peptide: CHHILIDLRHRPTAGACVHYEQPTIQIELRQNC

Table 7 peptide No. 1 = target: T13, Table 7 peptide No. 1 (human); assay: PEPSCAN CLIPS peptide ELISA
T13 peptide: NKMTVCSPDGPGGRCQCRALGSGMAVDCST

Table 7 peptide No. 30 = target: T14, Table 7 peptide No. 30 (human, not fully specified); assay: PEPSCAN CLIPS peptide ELISA
T14 peptide: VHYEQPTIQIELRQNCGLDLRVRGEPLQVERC

Table 7 peptide No. 25 = target: T15, Table 7 peptide No. 25 (human, not fully specified); assay: PEPSCAN CLIPS peptide ELISA
T15 peptide: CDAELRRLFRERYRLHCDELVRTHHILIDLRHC

Table 7 peptide No. 4 = target: T16, Table 7 peptide No. 4 (human, not fully specified); assay: PEPSCAN CLIPS peptide ELISA
T16 peptide: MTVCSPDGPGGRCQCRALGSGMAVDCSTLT

Table 7 peptide No. 31 = target: T17, Table 7 peptide No. 31 (human, not fully specified); assay: PEPSCAN CLIPS peptide ELISA
T17 peptide: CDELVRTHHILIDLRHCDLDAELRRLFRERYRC

Table 7 peptide No. 32 = target: T18, Table 7 peptide No. 32 (human, not fully specified); assay: PEPSCAN CLIPS peptide ELISA
T18 peptide: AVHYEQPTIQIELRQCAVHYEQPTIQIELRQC

Table 7 peptide No. 7 = target: T19, Table 7 peptide No. 7 (human, not fully specified); assay: PEPSCAN CLIPS peptide ELISA
T19 peptide: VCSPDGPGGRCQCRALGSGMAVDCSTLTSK

Table 7 peptide No. 12 = target: T20, Table 7 peptide No. 12 (human); assay: PEPSCAN CLIPS peptide ELISA
T20 peptide: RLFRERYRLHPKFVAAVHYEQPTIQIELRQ

Table 7 peptide No. 14 = target: T21, Table 7 peptide No. 14 (human); assay: PEPSCAN CLIPS peptide ELISA
T21 peptide: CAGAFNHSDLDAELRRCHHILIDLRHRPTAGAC

Table 7 peptide No. 6 = target: T22, Table 7 peptide No. 6 (human, not fully specified); assay: PEPSCAN CLIPS peptide ELISA
T22 peptide: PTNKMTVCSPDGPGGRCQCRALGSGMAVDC

Table 7 peptide No. 10 = target: T23, Table 7 peptide No. 10 (human); assay: PEPSCAN CLIPS peptide ELISA
T23 peptide: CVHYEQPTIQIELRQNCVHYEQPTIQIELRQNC

Table 7 peptide No. 11 = target: T24, Table 7 peptide No. 11 (human); assay: PEPSCAN CLIPS peptide ELISA
T24 peptide: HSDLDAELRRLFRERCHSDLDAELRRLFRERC

Table 7 peptide No. 13 = target: T25, Table 7 peptide No. 13 (human); assay: PEPSCAN CLIPS peptide ELISA
T25 peptide: AVHYEQPTIQIELRQ

Table 7 peptide No. 21 = target: T26, Table 7 peptide No. 21 (human); assay: PEPSCAN CLIPS peptide ELISA
T26 peptide: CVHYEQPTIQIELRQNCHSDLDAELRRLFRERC

Table 7 peptide No. 19 = target: T27, Table 7 peptide No. 19 (human); assay: PEPSCAN CLIPS peptide ELISA
T27 peptide: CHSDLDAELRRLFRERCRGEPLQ

Table 7 peptide No. 15 = target: T28, Table 7 peptide No. 15 (human); assay: PEPSCAN CLIPS peptide ELISA
T28 peptide: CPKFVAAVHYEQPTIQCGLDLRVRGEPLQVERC

Table 7 peptide No. 22 = target: T29, Table 7 peptide No. 22 (human); assay: PEPSCAN CLIPS peptide ELISA
T29 peptide: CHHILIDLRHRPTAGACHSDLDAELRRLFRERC

Table 7 peptide No. 29 = target: T30, Table 7 peptide No. 29 (human, not fully specified); assay: PEPSCAN CLIPS peptide ELISA
T30 peptide: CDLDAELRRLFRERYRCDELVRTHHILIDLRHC

Table 7 peptide No. 24 = target: T31, Table 7 peptide No. 24 (human, not fully specified); assay: PEPSCAN CLIPS peptide ELISA
T31 peptide: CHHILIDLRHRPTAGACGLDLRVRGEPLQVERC

Table 7 peptide No. 27 = target: T32, Table 7 peptide No. 27 (human, not fully specified); assay: PEPSCAN CLIPS peptide ELISA
T32 peptide: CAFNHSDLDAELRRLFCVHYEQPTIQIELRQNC

human TROP-2 (hTROP-2) [1] = target: T33, human TROP-2 (hTROP-2) (human); assay: FACS on PK-59 cells
T33 chain: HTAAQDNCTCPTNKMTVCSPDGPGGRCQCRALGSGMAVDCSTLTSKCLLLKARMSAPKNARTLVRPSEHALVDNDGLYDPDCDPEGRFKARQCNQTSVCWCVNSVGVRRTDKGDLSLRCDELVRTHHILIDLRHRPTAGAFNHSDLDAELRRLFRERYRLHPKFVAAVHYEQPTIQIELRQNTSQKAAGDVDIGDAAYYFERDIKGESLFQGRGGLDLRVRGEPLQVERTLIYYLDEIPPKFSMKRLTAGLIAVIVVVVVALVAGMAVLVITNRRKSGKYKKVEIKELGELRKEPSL

[2] = target: T34, recombinant protein of the extracellular region of hTROP-2 (human); assay: ELISA of free antibody after equilibration with antigen in solution
T34 sequence: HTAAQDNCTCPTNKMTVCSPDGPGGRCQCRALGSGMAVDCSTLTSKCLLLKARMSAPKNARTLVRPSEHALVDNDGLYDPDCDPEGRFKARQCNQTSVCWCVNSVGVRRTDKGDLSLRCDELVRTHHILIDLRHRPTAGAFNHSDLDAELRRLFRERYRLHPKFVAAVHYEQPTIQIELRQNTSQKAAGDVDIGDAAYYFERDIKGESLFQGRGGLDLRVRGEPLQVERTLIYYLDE

human TROP-2 (hTROP-2) [3] = target: T33, human TROP-2 (hTROP-2); assay: FACS on BxPC-3 cells

B1: anti-hTROP-2 monoclonal antibody K5-70 (antibody, V domains shown)
VH: QVQLQQPGAELVRPGASVKLSCKASGYTFTIYWINWVKQRPGQGLEWIGNIYPSDSYTNYNQKFKDKATLTVDKSSSTAYMQLSSPTSEDSAVYYCTRTSMADYWGQGTTLTVSS
VL: DILLTQSPAILSVSPGERVSFSCRASQSIGTSIHWYQQRTNGSPRLLIKYASESISGIPSRFSGSGSGTDFTLSINSVESEDIADYYCQQSNSWPFTFGSGTKLEIK
In the case of B1, the “binding of K5-70” value (Table 7 peptide No. 20) is reported as 513, the “binding of K5-70” value (Table 7 peptide No. 26) is reported as 483 and the “binding of K5-70” value (Table 7 peptide No. 2) is reported as 2600. For the same binder, the “binding of K5-70” value (Table 7 peptide No. 33) was 466, the “binding of K5-70” value (Table 7 peptide No. 18) was 524 and the “binding of K5-70” value (Table 7 peptide No. 9) was 839. For the same binder, the “binding of K5-70” value (Table 7 peptide No. 17) was 538, the “binding of K5-70” value (Table 7 peptide No. 28) was 473 and the “binding of K5-70” value (Table 7 peptide No. 16) was 538. The “binding of K5-70” value (Table 7 peptide No. 3) was 2560, the “binding of K5-70” value (Table 7 peptide No. 8) was 876 and the “binding of K5-70” value (Table 7 peptide No. 23) was 489. For the same binder, the “binding of K5-70” value (Table 7 peptide No. 1) was 2740, the “binding of K5-70” value (Table 7 peptide No. 30) was 470 and the “binding of K5-70” value (Table 7 peptide No. 25) was 483. For the same binder, the “binding of K5-70” value (Table 7 peptide No. 4) was 2400, the “binding of K5-70” value (Table 7 peptide No. 31) was 469 and the “binding of K5-70” value (Table 7 peptide No. 32) was 468. For the same binder, the “binding of K5-70” value (Table 7 peptide No. 7) was 932, the “binding of K5-70” value (Table 7 peptide No. 12) was 687 and the “binding of K5-70” value (Table 7 peptide No. 14) was 624. The “binding of K5-70” value (Table 7 peptide No. 6) was 1390, the “binding of K5-70” value (Table 7 peptide No. 10) was 825 and the “binding of K5-70” value (Table 7 peptide No. 11) was 725. For the same binder, the “binding of K5-70” value (Table 7 peptide No. 13) was 642, the “binding of K5-70” value (Table 7 peptide No. 21) was 511 and the “binding of K5-70” value (Table 7 peptide No. 19) was 519. For the same binder, the “binding of K5-70” value (Table 7 peptide No. 15) was 579, the “binding of K5-70” value (Table 7 peptide No. 22) was 489 and the “binding of K5-70” value (Table 7 peptide No. 29) was 472. For the same binder, the “binding of K5-70” value (Table 7 peptide No. 24) was 488, the “binding of K5-70” value (Table 7 peptide No. 27) was 478 and the “mean fluorescence intensity, times that with PE-labeled anti-mouse IgG only” value (human TROP-2 (hTROP-2) [1]) was 44 times. For the same binder, the Kd [2] was 6.8 pM and the “mean fluorescence intensity, times that with PE-labeled anti-mouse IgG only” value (human TROP-2 (hTROP-2) [3]) was 45 times.
